These results are taken from the supplement of paper PMC12042874.

± gives the uncertainty stated by the source.

This data set is described as follows: amyloid nucleation score (Sup35N fusion, yeast selection) (log enrichment); library NNK1; higher = more nucleation; inactive = no reads after selection. The essentials: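 Plasmid inserts were Illumina-sequenced at input and output from psi-negative yeast expressing Sup35N fused to peptides of 20 random codons. The yeast were induced with 100 μM copper sulfate for 24 hours and grown 7 days at 30°C on medium lacking adenine and uracil, and sequences with under 100 input reads were excluded. Nucleation score is the DiMSum log enrichment of output over input reads, centred on the mode score of non-aggregating sequences.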
In turn, TRLCWFWFNA returned an amyloid nucleation score of 0.066 ± 0.41.
The substance RFFPWQPCNPHIMPLIFWMP gave an amyloid nucleation score of 0.692 ± 0.82.
In the case of MEKYYGQLLKDY, the amyloid nucleation score amounted to 0.224 ± 0.29.
For the substance MFNKVSLSVWASFVWKIIIH, the amyloid nucleation score is -0.654 ± 0.83.
Regarding WKDRPRVCLFMLLNENGRQM, the amyloid nucleation score is -0.831 ± 1.2.
Substance CRLKLNPSVHGIGRGVCLAE showed an amyloid nucleation score of -0.464 ± 0.48.
VQGYKVRLSGRNFGCNCASK displayed an amyloid nucleation score of -1.85 ± 1.8.
In turn, GLETNNLARLVCGSRCFLSD yielded an amyloid nucleation score of -0.894 ± 2.4.
The substance TVRLTRTRV showed an amyloid nucleation score of -0.474 ± 0.86.
Substance YARGMCWVRVWLNVQVSAWS displayed an amyloid nucleation score of 0.398 ± 0.53.
The value for TLFPVRNTMMFLESYS was -0.742 ± 0.41.
The result for RNCEEGFWRSEQPDHTYKLA reads -0.955 ± 0.62; that for TLLSVTYSCIRMPVPMAYRS, 4.42 ± 0.085.
Take YCIGYGKICSYMRIVSSGLQ: the amyloid nucleation score is 0.901 ± 0.24.
In the case of LRRLTTVAGIVIAVTSEDDT, the amyloid nucleation score came to 0.595 ± 0.73.
GTYFSGIVVVFLVGVLAR gave an amyloid nucleation score of -0.207 ± 0.49.
In turn, PERTSMGSKFTTDN showed an amyloid nucleation score of -0.382 ± 0.43.
Substance TFIFAGDIT had an amyloid nucleation score of 1.38 ± 0.17.
The result for CHYMSHSSWHSWTNRVMRDM reads 0.531 ± 0.29.
The result for QVRCAFVIRRSV reads 0.143 ± 0.64; that for SAGSVADRGCLFSLRRASKC, 0.851 ± 0.78.
The result for ARERGCRSAH reads 0.332 ± 0.42.
Turning to PGLMDLSVCKKCWNCCYTYD, the amyloid nucleation score is -0.294 ± 0.65.
In turn, CLFLIKKHVNNDMGSVRRLS came in with an amyloid nucleation score of 0.317 ± 0.71.
In turn, YMVFVVVSI had an amyloid nucleation score of 0.946 ± 0.24.
As to DFEDTYSWKVTGEGATRKRW, the amyloid nucleation score worked out at 0.166 ± 0.49.
EYRTSSEQTANTFILKPRWA came in with an amyloid nucleation score of 1.72 ± 0.4.
As to CFNTRHRVQELRL, the amyloid nucleation score is -0.224 ± 1.7.
In turn, SWFNISAVLENMGRYS showed an amyloid nucleation score of 0.26 ± 0.44.
The value for TVRFHYQGFTVS was -0.236 ± 0.61; that for YFLLPYADRIHHLSVNCFWM was -0.008 ± 0.93.
In turn, TVRGSAFLIKWKLI displayed an amyloid nucleation score of -0.86 ± 0.9.
On to VCSRLDSEQHDHECASQELM, for which the amyloid nucleation score was 0.106 ± 0.99.
The substance LTYSPWGCWIYMCYGERFWR gave an amyloid nucleation score of 7.883 ± 0.062.
The value for CGMARWSRKSTELAHKQNVD was 0.277 ± 0.61; that for VSRNIWYRWGNLLAVVKM was -0.025 ± 0.57; that for VENTPSCSDISSDLMGREIH was -0.87 ± 0.35.
In the case of VADAPMR, the amyloid nucleation score turned out to be 0.944 ± 0.9.
Take GLNSDGLWLLSLNTRKSRAH: the amyloid nucleation score was -0.349 ± 1.1.
The result for DCWSITILSVNRGSLFRLTF reads “inactive”; that for NSCRMPYSGV, “inactive”.
For YNREWYYIWLLREFDVRKHS, the amyloid nucleation score was 1.43 ± 0.53.
The result for LVNIHVIQKAFVGTVASSKV reads 5.07 ± 0.067; that for LDVFPNYASRCTWAVDASFL, -0.703 ± 2.1.
On to DDFTLCKPGLVYMMSG, for which the amyloid nucleation score was determined as 0.398 ± 0.6.
As for WNNVGNTCMEPRSSLGCTLR, the amyloid nucleation score was found to be 0.147 ± 0.51.
On to CNRLIHDMHVCLTNE, for which the amyloid nucleation score result is “inactive”.
For FLWIA, the amyloid nucleation score is -0.012 ± 0.56.
ASAMLMHF had an amyloid nucleation score of 0.716 ± 0.2.
In turn, ATRVFLHIATQRSNLAYLPN returned an amyloid nucleation score of -0.189 ± 0.25.
As for FLVWIMGSFPTGRGANRRNS, the amyloid nucleation score is -0.465 ± 0.51.
Substance LYIMGRLDFIFRWVTGGFDT came in with an amyloid nucleation score of -0.838 ± 0.77.
In the case of GNLLRTSIDRLLYSWSTIVV, the amyloid nucleation score was -0.187 ± 0.46.
YHVSLLSI returned an amyloid nucleation score of 0.169 ± 0.65.
For YHDVRLMVRVHVFWLF, the amyloid nucleation score was 1.03 ± 0.37.
The result for NRYQRYVPTIEMEPNSSYGN reads “inactive”.
With TTMIRSYFREDYGQGPLMSW, the amyloid nucleation score was 0.51 ± 1.2.
The result for GISGLVLSYGADSGPGTWGK reads -0.63 ± 0.42; that for KILVVGHRESIMCTDSYIMW, -0.294 ± 0.59.
LNVIVKDRGPCKSSSEIAVD showed an amyloid nucleation score of -1.35 ± 1.3.
Turning to TQSCF, the amyloid nucleation score was found to be 0.074 ± 0.84.
LAEHHWYWAEMIWSRGHEFT showed an amyloid nucleation score of 0.158 ± 0.44.
In the case of DDLSGRRELTLRQT, the amyloid nucleation score was 0.618 ± 0.49.
In turn, CPGFD returned an amyloid nucleation score of 0.595 ± 0.64.
For the substance CYYSRFHFAPISIMFCVNGG, the amyloid nucleation score was determined as 5.99 ± 0.076.
As to QTMVTLGSKLIYDESGIVMV, the amyloid nucleation score result is “inactive”.
As for RGSKVFSSDALVSRLARRVG, the amyloid nucleation score was -0.462 ± 0.5.
In the case of SKCLMNS, the amyloid nucleation score was -1.26 ± 1.7.
In turn, CFILTVTYLNVGGNRMTAFH gave an amyloid nucleation score of 3.36 ± 0.1.
With FTISGLYSFFVSLLGKEYYG, the amyloid nucleation score was -0.074 ± 0.43.
Turning to EHLLCVSRCMLSSNLVTNCA, the amyloid nucleation score was -0.113 ± 0.94.
Turning to SNSNTIP, the amyloid nucleation score is -0.676 ± 0.98.
As for IVFDSLRGCSF, the amyloid nucleation score entry was “inactive”.
Substance FTCFATCCVLMNNVYYFMTL registered an amyloid nucleation score of 5.085 ± 0.05.
The result for LAWLQCRAGETFITWRHQFY reads 0.544 ± 0.55; that for CSVMSNARRIWDRMQLNGVK, -0.568 ± 0.33; that for NLMEKRSLRAIRWIVRSWAG, 0.839 ± 0.62.
In the case of YLIYVMPADVMAYWYCFT, the amyloid nucleation score was -0.379 ± 0.61.
The value for YITAWEWVQRRVV was 2.46 ± 0.18; that for HEPFDSDHTVARRETCLFGR was -0.928 ± 0.52; that for CDVAVVSFFGMADDPVYRVH was 1.54 ± 0.48.
In the case of DSFMAENMWGLFFDKSESPA, the amyloid nucleation score is -0.517 ± 0.95.
In turn, TVIEIKL displayed an amyloid nucleation score of 1.28 ± 0.85.
As for LSFWLCSWSMWCKSQLGNDR, the amyloid nucleation score is 2.13 ± 0.13.
Turning to GKRLQ, the amyloid nucleation score is -0.249 ± 1.2.
VFLMLEVCLMV had an amyloid nucleation score of 0.362 ± 0.72.
For SAQSTILICLHKGLDMSERH, the amyloid nucleation score stood at 5.8 ± 0.077.
For the substance TYWQVARTSPSF, the amyloid nucleation score stood at 0.547 ± 0.33.
Regarding RNLVWDMNAFKHVFCEDIHY, the amyloid nucleation score amounted to 0.396 ± 0.69.
For LDRKIK, the amyloid nucleation score turned out to be 0.651 ± 0.39.
As for EIWWMVKVQLSVEYSSGNRL, the amyloid nucleation score amounted to 1.16 ± 0.39.
For YYNRFILRSWEGSSMGLWSC, the amyloid nucleation score was -0.582 ± 0.36.
As to RRSSSFSGIWYVSVGYNASL, the amyloid nucleation score was -0.316 ± 0.53.
As for DRRIEYVVDLGSSCGMTTHV, the amyloid nucleation score worked out at 0.049 ± 0.41.
The result for SSLKVLIPYSCYHFV reads 2.76 ± 0.1; that for YHIRVAWQFVGADI, -0.535 ± 1.
The value for TSDGHFSSQVDSVDESKVGE was -0.534 ± 0.46; that for FNLGTNK was -0.442 ± 0.3; that for CRFMSVICHTLFWTPLTFYY was 0.592 ± 0.83.
IRAFSWTIMLLFYCWWHVEN: the amyloid nucleation score came out at 0.402 ± 0.86.
The result for FTQRSSVR reads 0.651 ± 0.7; that for HIYSRYQERRLVFVWYACND, 0.134 ± 0.38.
In turn, KLKQVCPLTPVSRVSEQGKK returned an amyloid nucleation score of -0.441 ± 1.1.
LRVKIHTIVIQWIANNGARL yielded an amyloid nucleation score of 0.39 ± 0.74.
The result for SEHRMASRHVNPRPGGKDCR reads -1.54 ± 2.7; that for RIIQGFLAM, -0.153 ± 1.4.
The value for NRHEILHIVG was 1.67 ± 0.63; that for ACVMRIDAFFMTISVRLLRL was 1.79 ± 0.3.
The substance SALRTCKFN showed an amyloid nucleation score of 0.826 ± 0.56.
VFGSCWYLYFVYLPTNRFRM returned an amyloid nucleation score of -0.134 ± 0.3.
Regarding LSHWMPVN, the amyloid nucleation score is -0.527 ± 0.34.
As to VDRVGIQYVLEWCSRRSGQV, the amyloid nucleation score came out at 0.04 ± 1.4.
Take LYNSRTWMIGIGSPAQIV: the amyloid nucleation score is -0.731 ± 0.61.
The result for RVEFHGIR reads 1.62 ± 0.32.
In turn, FGLRFAHAHLINWPWMLSGS showed an amyloid nucleation score of 0.047 ± 0.76.
On to AIDSVNMTTLRWM, for which the amyloid nucleation score is 0.292 ± 0.62.
In turn, AYYGDGFAKGTMLMTS displayed an amyloid nucleation score of -0.35 ± 0.32.
Substance IYGGRIS displayed an amyloid nucleation score of -0.557 ± 0.75.
Consider DDLWSCMFELDAYMSFYLKA, for which the amyloid nucleation score result was “inactive”.
Consider DEKMVSVSSESGRLHKNVKC, for which the amyloid nucleation score was 1.11 ± 0.49.
QQLALPPWSCLWQ: the amyloid nucleation score was determined as 0.095 ± 0.49.
The value for FENFVASFLPNFGITLRKGQ was 0.043 ± 0.24; that for YVPMRETGCRDSTYIEWFWY was -0.057 ± 0.24.
With NVSYRSYRFVHWVNLVGSMA, the amyloid nucleation score result is “inactive”.
With FFLTDITTLHYQSRNRLFLT, the amyloid nucleation score is -0.581 ± 0.23.
The result for FDLVYACANPTFGINVRTGR reads 2.67 ± 0.12; that for GWRSGVWLGSV, -1.32 ± 0.77; that for TGTPYLLHLNWNLGSGMSGT, 0.451 ± 0.2.
Take NRSWYIRVLHRATSVSLKSF: the amyloid nucleation score is -0.226 ± 0.39.
In turn, LSQTKSL displayed an amyloid nucleation score of -0.012 ± 0.77.
Substance RFDYGGIESGVAGCVRVRDY showed an amyloid nucleation score of 0.473 ± 0.67.
As for ISTNLHGDIKMVFVAIPWQE, the amyloid nucleation score amounted to 4.85 ± 0.09.
As for SYFFGACCVGMCRLWNLFYS, the amyloid nucleation score is 0.857 ± 0.52.
In turn, GRCLCGLVDDYFYNAYWVLP displayed an amyloid nucleation score of -0.555 ± 0.35.
Substance NGADTSSQAF had an amyloid nucleation score of -0.182 ± 1.3.
EVAMVYFKCVLFITSDSKQR: the amyloid nucleation score was -0.823 ± 1.1.
For NYTNCTSTDRI, the amyloid nucleation score worked out at 0.907 ± 0.56.
In turn, WKGLRYLNFYFTE displayed an amyloid nucleation score of 4.52 ± 0.059.
The value for VWRHGHNELRIRYAVSLYM was 0.608 ± 0.46; that for ELLACGIKRRVVKTGVRTAY was -0.407 ± 1.2.
